Results on 41 sequences are retold here after the nanobody polyreactivity screen of Harvey et al. (2022).

A short description of the data set: yeast display, Sf9 membrane polyspecificity reagent, FACS + sequencing; frameworks hold sequencing errors. The gist of the method:
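Nanobodies came from a synthetic yeast display library in Saccharomyces cerevisiae BJ5465, induced with galactose for 36–48 hours and stained for 1 hour at 4 °C with 10% biotinylated, detergent-solubilized Sf9 membrane reagent. Cells were enriched on streptavidin microbeads and then FACS-sorted, with low and high (top ~1%) gates set on anti-HA fluorescence for expression and streptavidin fluorescence for reagent binding. Each polyreactivity label reflects the gate a clone came from. Genes were amplified by colony PCR, sequenced by MiSeq 2 × 250 and filtered by CDR length.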
With “QVQLVESGGGLVQAGGSLRLSCAASGIIFDDNAMGWYRQAPGKERELVAAINRDGSTYYADSVKGRFTISRDNAKNTVYLQLNSLKPEDTAVYYWAADFYGPRSAVYFLRYSTRYYWGQGTQVTVSS”, the “polyreactivity (PSR sort gate)” value was “low polyreactivity”.
To “QVQLVESGGGLVQAGGSLRLSCAASGIIFDDYAMGWYRQATGKERELVAVISSSGGNTYYADSVKVRFTISRDNAKNSVYLQMNSLKPEDTAVYYCAATYYYKSIYWFEYWGQGTQVTVSS” belongs “low polyreactivity”; to “QVQLVESGGGLVQAGGSLRLSCAASGIIFDEYAMGWYRQAPGKEREMVAAITSGGSTYYADSVKGRFTISRDNAKNTVYLQMNSLKPEDTAVYYCNAYSSYGTFFYWAWPYYYWGQGTQVTVSS”, “high polyreactivity”.
To “QVQLVESGGGLVQAGGSLRLSCAASGIIFDGNAMGGYRQAAGKERELVAAHTSSTDSTYYADSVKGRFTISRDNAKNTVYLQMNSLKPEDTAVYYCAADYPSKTFDYWGQGTQVTVSS” belongs “low polyreactivity”; to “QVQLVESGGGLVQAGGSLRLSCAASGIIFDGYAMGWYRQAPGKERELVAAISGHGGSTYYADSVKGRFTISRDNAKNTVYLQMNSLKPEDTAVYYCAAEYVYWRIGQYDYWGQGTQVTVSS”, “high polyreactivity”; to “QVQLVESGGGLVQAGGSLRLSCAASGIIFDHYAMGWYRQAPGKERELVAAISTGGGNTYYADSVKGRFTISRDNAKNTVYLQMNSLKPEDTAVYYCAARRGTGSYSYRYPYGYDYWGQGTQVTVSS”, “low polyreactivity”.
The result for “QVQLVESGGGLVQAGGSLRLSCAASGIIFDRYAMGWYRQAPGKERELVAAITYGGGSTYYADSVKGRFTISRDNAKNTVYLQMNSLKTEDTAVYYCAAVPRSGMYYWGQGTQVTVSS” reads “high polyreactivity”.
On to “QVQLVESGGGLVQAGGSLRLSCAASGIIFDTYAMGWYIQAPGKERELVAAISRSGDTTYYADSVKGRFTISRDNAKNTVYLQMNSLKPEDTAVYYCNARQSRWDKYDYWGQGTQVTVSS”, for which the “polyreactivity (PSR sort gate)” value is reported as “high polyreactivity”.
To “QVQLVESGGGLVQAGGSLRLSCAASGIIFDTYAMGWYRQAPGKERELVAAISRSGDTTYYADSVKGRFTISRDNAKNTVFLQMNSLKPEDTAVYYCNARQSRWDKYDYWGQGTQVTVSS” belongs “high polyreactivity”; to “QVQLVESGGGLVQAGGSLRLSCAASGIIFDTYAMGWYRQAPGKERELVAAISRSGDTTYYADSVKGRFTISRDNAKNTVYLQMNSLKPEDTAVYYCYARQSRWDKYDYWGQGTQVTVSS”, “high polyreactivity”.
The result for “QVQLVESGGGLVQAGGSLRLSCAASGIIFDYNAMGWYRQAPGKERELVAAISGRSGRTYYADSVKGRFTISRDNAMNTVYLQMNSLKPEDTAVYYCAARWYAGGNYWGQGTQVTVSS” reads “high polyreactivity”; that for “QVQLVESGGGLVQAGGSLRLSCAASGIIFDYYAMGWYRPAPGKERELVAAINWNGGTPYYADSVKGRFTISRDYAKKTVFLQMNSLKPEDSAVYYCNTRGRYLMVDWGHGTQVTVSS”, “high polyreactivity”.
To “QVQLVESGGGLVQAGGSLRLSCAASGIIFDYYAMGWYRQAPGKERELVAAITTSGGRTYYADSVKGRFTISRDNAKNTVNFQMNSLKPEDTAVYYCAASRPSPRPRYGYWGQGTQVTVSS” belongs “high polyreactivity”; to “QVQLVESGGGLVQAGGSLRLSCAASGIIFEYYAMGWSRPAPGKERQLVAAISSSGGSTYYADSVKVRFTISRDNAKNTVYLQMNSLKPEDTAVYYCATRYAASTSRWQYYYWGQGTQVTVSS”, “high polyreactivity”; to “QVQLVESGGGLVQAGGSLRLSCAASGIIFFFYDMGWYRQSPGKERELVAAISDDGVSTDYADSVKGRFTISRDNAKNTVYLQMNSLKPEDTAVYYCAAKTERVYPWFSFGYWVQGTQVTVSS”, “low polyreactivity”.
With “QVQLVESGGGLVQAGGSLRLSCAASGIIFFLYAMGWYRPAPGKERELVAAISSGGSTYYADSVKGRFTISRDNAKNTVYLQMNSLKPEDTAVYYCNARYWPFRYYYWGQGTQVTVSS”, the “polyreactivity (PSR sort gate)” value is reported as “high polyreactivity”.
The result for “QVQLVESGGGLVQAGGSLRLSCAASGIIFFRNAMGWYRQAPGNERELVATITSGVSTNYADSVKGRFTISRDNAKNTVYLQKNSLKPEDTAVYYCATEGFPFYDFDYWGQGTQVTVSS” reads “high polyreactivity”.
Regarding “QVQLVESGGGLVQAGGSLRLSCAASGIIFFTYAMGWYRQATGKERELVAAISSGGSTTYADSVKGRFTISRDNAKNTVYLQMNSLKPEDTAVYYCAAGTQAHDYVVRPIDMDYWGQGTQVTVSS”, the “polyreactivity (PSR sort gate)” value is listed as “low polyreactivity”.
The result for “QVQLVESGGGLVQAGGSLRLSCAASGIIFGEYAMGWYRQAPGKERELVAAISGSGSRTYYADSVKGRFTISRDNAKNTVYLQMNSLKPEDTAVYYCAVKGGGTRYGYWGQGTQVTVSS” reads “high polyreactivity”; that for “QVQLVESGGGLVQAGGSLRLSCAASGIIFGEYAMGWYRQAPGKERELVAAISQSGGTYYADSVKGRFTISRDNAKNTVYLQMNSLKPEDTAVYYCNADYWAYISRVRYDYWGQGTQVTVSS”, “low polyreactivity”; that for “QVQLVESGGGLVQAGGSLRLSCAASGIIFGGYDMGWYRQAPGKERELVAAISWSGGSTYYADSVKGRFTISRDNAKNTVYLQMNSLKPEDTAVYYCAAAYYAPTRDYHYWGQGTQVTVSS”, “low polyreactivity”.
To “QVQLVESGGGLVQAGGSLRLSCAASGIIFGGYTMGWYRQAPGKERELVAAISSTGASTYYADSVEGRFTISRDNAKNTVYLQMNSLKPEDTAVYYCNAKRAPWGTLYNYWGQGTQVTVSS” belongs “high polyreactivity”; to “QVQLVESGGGLVQAGGSLRLSCAASGIIFGHYAMGWYRQAPGKERELVAAIRSSGGTTYYADSVKGRFTISRDNAKNTVYLQMNSLKPEDTAVYYCAKRGVHLYHDYYWGQGTQVTVSS”, “low polyreactivity”; to “QVQLVESGGGLVQAGGSLRLSCAASGIIFGHYAMGWYRQAPGKERELVARITYSGTRTYYADSVKGRFTISRDNAKNTVYLQMNSLKPEDTAVYYCAAGYAYPRWVTAGNYWGQGTQVTVSS”, “high polyreactivity”.
To “QVQLVESGGGLVQAGGSLRLSCAASGIIFGRYAMGWYRQAPGKEREFVAAITWRVGTTYYADSVKGRFTISRDNAKNTVYLQMNSLKPEDTAVYYCAARSRTGRYDYWGQGTQVTVSS” belongs “high polyreactivity”; to “QVQLVESGGGLVQAGGSLRLSCAASGIIFGRYAMGWYRQAPGKERELVAAINGSGGSTYYADSVKGRFTISRDNAKNTVYLQMNSLKPEDTAVYYCAVVYYGSIFVLEYDYWGQGTQVTVSS”, “high polyreactivity”.
Turning to “QVQLVESGGGLVQAGGSLRLSCAASGIIFGRYAMGWYRQAPGKERELVAAISGSGGITYYADSVKGRFTISRDNAKNTVYLQMNSLKPEDTAVYYCATRKYLTYNYWGQGTQVTVSS”, the “polyreactivity (PSR sort gate)” value was “high polyreactivity”.
For the sequence “QVQLVESGGGLVQAGGSLRLSCAASGIIFGRYAMGWYRQAPGKERELVAAITSGGSTSYADSVKGRFTISRDNAKNTVYLQMNSLKPEDTAVYYCAVVFVWGWPGYYWGQGTQVTVSS”, the “polyreactivity (PSR sort gate)” value is recorded as “high polyreactivity”.
The result for “QVQLVESGGGLVQAGGSLRLSCAASGIIFGRYAMGWYRQAPGKERELVAVISRSGGSTYYADSVKGRFTISRDYAKNSVYLQMNSLKPEDTAVYYCAARYTPTYNAGLDYWGQGSQVTVSS” reads “high polyreactivity”; that for “QVQLVESGGGLVQAGGSLRLSCAASGIIFGSYTMGWYIQAPGKERELVATISFSGGTTNYADSVKGRFTISRDNAKNTVYLQMNSLKPEDTAVYYCAARPAPATGKLDYWGQGTQVTVSS”, “low polyreactivity”; that for “QVQLVESGGGLVQAGGSLRLSCAASGIIFGTYAMGWYRQAPGKERELVASITNGGNTNYADSVKGRFTISRDNAKNTVYLQMNSLKPEDTAVYYCAKDVPYWRPVVRYDYWGQGTQVTVSS”, “low polyreactivity”.
To “QVQLVESGGGLVQAGGSLRLSCAASGIIFGVNVMGWYRQAPGKERELVATITWRGDSTYYADSVKGRFTISRDNAKNTVYLQMNSLKPEDTAVYYCARGARTGVREDDYWGQGTQVTVSS” belongs “low polyreactivity”; to “QVQLVESGGGLVQAGGSLRLSCAASGIIFGWNTMGWYRQAPGKEREFVAAISSSGGSTYADSVKGRFTISRDNAKNTVYLQMNSLKPEDTAVYYCAASKQPGSFEFDYWGQGTQVTVSS”, “high polyreactivity”; to “QVQLVESGGGLVQAGGSLRLSCAASGIIFGWYAMGWYRPAPGKERELVAGISIGGSTYYADSVKGRFTISRDNANNTVYLQMNSLKPEDTAVYYCAADSYFVLPWSDYWGQGTQVTVSS”, “high polyreactivity”.
The result for “QVQLVESGGGLVQAGGSLRLSCAASGIIFGYYAMGWYRQAPGKERELVATINWDGGSTYYADSVKGRFTISRDNAKNTVYLQMNSLKPEDTAVYYCAAAKPVQYRIAQAHVGYWGQGTQVTVSS” reads “low polyreactivity”.
Take “QVQLVESGGGLVQAGGSLRLSCAASGIIFHGYAMGWYRQAPGKERDLVAAITASDGDTYYADSVKGRFTISRDNAKNTVYLQMNSMKPEDTAVYYCAADFWYYHTRMDYWGQGTQVTVSS”: the “polyreactivity (PSR sort gate)” value is “low polyreactivity”.
To “QVQLVESGGGLVQAGGSLRLSCAASGIIFHGYAMGWYRQAPGKERELVAAITNSGGRTYYADSVKGRFTISRDNAKNTVYLQMNSLKPEDTAVYYCAADGHKYRMDYWGQGTQVTVSS” belongs “low polyreactivity”; to “QVQLVESGGGLVQAGGSLRLSCAASGIIFIFYDMGWYRQAPGKERELVATITSGTNTYADSVKGRFTISRDNAKNTVYLQMNSLKPEDTAVYYCNAGAVHKKPARDYWGQGTQVTVSS”, “low polyreactivity”; to “QVQLVESGGGLVQAGGSLRLSCAASGIIFINYAMGWYRQAPGKEWELVAAITSSGGSTYYADSVKGRFTISRDNAKNTVYLQMNSLKPEDTAVYYCAAVSSYWGQGTQVTVSS”, “low polyreactivity”.
With “QVQLVESGGGLVQAGGSLRLSCAASGIIFIVNAMGWYRQAPGKERELVAAISNGGSTNYADSVKGRFTISRDNAKNTVYLQMNSLKPEDTAVYYCAADDEGWWVTNYDYWGQGTQVTVSS”, the “polyreactivity (PSR sort gate)” value is on record as “low polyreactivity”.
To “QVQLVESGGGLVQAGGSLRLSCAASGIIFIYNGMGWYRQAPGKERELVATINWSGGNTYYADSVKGRFTISRDNAKNTVSLQMNSLKPEDTAVYDCAVRGSRFWGYDYWGQGTQVTVSS” belongs “low polyreactivity”.
